Series [1] relates to CT26 cells. Kind of series: ROS detection with DCFH-DA. As to conditions: CT26, 5 μM, 1 h, 660 nm laser 1 min 0.02 W/cm^2, confocal laser scanning microscopy. It counts as cell-based, mouse. On the procedure:
(§1) For cell endocytosis detection, CT26 and HCT116 cells were treated with Ce6 molecules (5 μM) or Ce6-GFFY (5 μM) at 37 °C for 1 h. For ROS detection, cells were treated with Ce6 molecules (5 μM), GFFY peptide (5 μM), or Ce6-GFFY (5 μM) at 37 °C for 1 h and then treated with or without laser irradiation for 1 min (660 nm, 0.02 W/cm^2). Afterward, the cells were collected and stained with DCFH-DA (1:5000) at 37 °C for 20 min. For cell death analysis, cells were treated with Ce6 molecules, GFFY peptide, or Ce6-GFFY (CT26, 10 μM; HCT116, 5 μM) at 37 °C for 1 h and then treated with or without laser irradiation for 1 min (660 nm, 0.02 W/cm^2). After incubation at 37 °C for 24 h, the cells were collected and stained with propidium iodide (1:100) and annexin V-FITC (1:200). For examination of CRT expression, cells were treated with Ce6 molecules, GFFY peptide, or Ce6-GFFY (CT26, 10 μM; HCT116, 5 μM) at 37 °C for 1 h and then treated with or without laser irradiation for 1 min (660 nm, 0.02 W/cm^2). After incubation at 37 °C for 8 h, the cells were collected and blocked with 5% bull serum albumin for 10 min and then incubated with a primary anti-calreticulin antibody (#ab92516, Abcam), followed by the incubation of an Alexa Fluor 488-conjugated secondary antibody (#406416, BioLegend). […]

In series [2] the test system is HCT116 cells. Kind of series: ROS detection with DCFH-DA. The series is classed as cell-based, human. As to conditions: HCT116, 5 μM, 1 h, 660 nm laser 1 min 0.02 W/cm^2, confocal laser scanning microscopy. On the procedure: as §1
The nature of series [3]: In vivo imaging, kinetics of Ce6 fluorescence in mice. Details: species or system mouse. The procedure:
(§2) For in vivo imaging, Ce6-GFFY (5 mg/kg) and Ce6 molecules (2.5 mg/kg) were injected into mice burdened with or without xenograft tumors through the tail vein (100 μL/mouse), and the fluorescence intensity of mice or main tissues such as brain, heart, liver, spleen, lung, kidney, intestine, and stomach was detected and analyzed with an IVIS spectrum imaging system (PerkinElmer, MA, USA). All animal experiments were approved by The Institutional Animal Care and Use Committee at Sun Yat-sen Cancer Center.

Series [4] has as its system CT26 cells. Kind of series: CCK-8 assay. The conditions noted are these: drug 1 h, 660 nm laser 1 min at 0.02 W/cm^2, then 24 h at 37 °C, read-out: IC50 (proliferation). The series is classed as cell-based, mouse. On the procedure:
(§3) Cell viability was measured using a CCK-8 cell counting kit (Beyotime Biotechnology, Shanghai, China). 7000 cells were seeded in 96-well plates and treated with drugs at various concentrations for 1 h and then treated with or without laser irradiation for 1 min (660 nm, 0.02 W/cm^2), followed by incubation at 37 °C for 24 h. After the addition of the CCK-8 reagent, the cells were continually incubated at 37 °C for 3 h before being detected by a microplate reader (TECAN, Victoria, Austria).

Series [5] has as its system HCT116 cells. The series is described as follows: CCK-8 assay. The series is classed as cell-based, human. The conditions noted are these: drug 1 h, 660 nm laser 1 min at 0.02 W/cm^2, then 24 h at 37 °C, read-out: IC50 (proliferation). The procedure: as §3
Series [6] relates to CT26 cells. The series is described as follows: Cell endocytosis (uptake) detection by Ce6 fluorescence. It counts as cell-based, mouse. As to conditions: CT26, 5 μM, 37 °C, 1 h. On the procedure: as §1
For series [7], the system named is HCT116 cells. The description is as above. As to conditions: HCT116, 5 μM, 37 °C, 1 h. It counts as cell-based, human. On the procedure:
as §1

The next series has as its system CT26-derived tumors. Kind of series: In vivo imaging, tumor targeting in mice bearing CT26-derived tumors. Further details: species or system mouse. As to conditions: tail vein, 5 mg/kg, n = 3. On the procedure:
as §2

Series [8] is described as follows: Toxicity evaluation in mice (blood routine, liver and kidney function, H&E pathology). The series is classed as in vivo, mouse. As to conditions: 5 mg/kg i.v. plus laser irradiation. From the text:
Four-to-six-week-old BALB/c mice and BALB/c nude mice were purchased from Guangdong Medical Laboratory Animal Center (Guangzhou, China). All mice were maintained under standard conditions and treated according to institutional guidelines for animal care. For primary tumor therapy, 2 × 10^5 CT26 cells were suspended in a 1:1 mixture of PBS and matrigel and subcutaneously injected into the flanks of the mice. When the volume of tumors reached 70 mm^3, the mice were randomized into treatment and control groups. The treatment groups received tail intravenous injections of GFFY (2.5 mg/kg), Ce6 (2.5 mg/kg), or Ce6-GFFY (5 mg/kg), and the control group received PBS treatment, both groups were treated with once 660 nm laser irradiation for 8 min (1 min on, 1 min off; 4 cycles) on the tumor region at a power of 0.2 W/cm^2. Tumor volume and mouse body weight were recorded every three days, and tumor tissues were collected and weighed at the end of treatment. Main organs such as the heart, liver, spleen, lung, and kidney were collected for pathological analysis and the blood was collected for blood routine examination.

[9] abbreviates: confocal laser scanning microscopy, versus Ce6 molecules.
[10] abbreviates: flow cytometry, Ce6 fluorescence.

pIC50: −log10 of the molar value.

In the case of `C=Cc1c(C)c2cc3nc(c(CC(=O)O)c4[nH]c(cc5nc(cc1[nH]2)C(C)=C5CC)c(C)c4C(=O)O)[C@@H](CCC(=O)O)[C@@H]3C` [Ce6, chlorin e6], the “ROS production upon 660 nm laser irradiation” value in the series with CT26 cells [1] and in the series with HCT116 cells [2] was “minimal” each time. Besides, the “time after injection by which almost cleared” value in [3] (mice, tail vein injection, 2.5 mg/kg, living imaging of Ce6 luminescence, n = 5) is no more than 12 h. Also, the half-life in mice in series [3] (mice, tail vein injection, Ce6-GFFY 5 mg/kg, Ce6 2.5 mg/kg, from Ce6 luminescence changes, IVIS imaging, n = 5) was determined as 3 h.

On to `C=Cc1c(C)c2cc3nc(c(CC(=O)NCC(=O)N[C@@H](Cc4ccccc4)C(=O)N[C@@H](Cc4ccccc4)C(=O)N[C@@H](Cc4ccc(O)cc4)C(=O)O)c4[nH]c(cc5nc(cc1[nH]2)C(C)=C5CC)c(C)c4C(=O)O)[C@@H](CCC(=O)O)[C@@H]3C` [Ce6-GFFY], for which the pIC50 is 5.20 in the series on CT26 cells [4] and 5.28 in the series on HCT116 cells [5]. Further, the “cellular Ce6 fluorescence” value in the series on CT26 cells [6] (setting [9]) and in the series on HCT116 cells [7] (setting [9]) was “noticeable aggregation of Ce6 fluorescence” in each case. The “cellular uptake (Ce6 positive cells)” value with CT26 cells [6] (setting [10]) and with HCT116 cells [7] (setting [10]) was “much higher than Ce6 molecules” each time. The “retention time in the mice” value in [3] (mouse, in vivo, 5 mg/kg) is recorded as “over 48 h”. In the series on CT26-derived tumors (living imaging), the “accumulation in tumor regions after injection” value is listed as “accumulated rapidly in the tumor regions”. The “distribution in tumor and normal tissues after 24 h” value with CT26-derived tumors (organs and tumors imaged at 24 h) is recorded as “stable aggregation in tumor tissues”. For the same compound, the “hepatic and renal function (AST, ALT, BUN)” value in [8] (end of treatment, n = 5) is “did not exert an impact on the hepatic and renal function”. In addition, the “murine blood routine analysis (inflammatory responses)” value in series [8] (end of treatment, n = 5) is “did not elicit any significant inflammatory responses”. Besides, the “histopathological analysis of heart, liver, spleen, lung, and kidney (H&E)” value in series [8] (n = 4) was “no apparent toxicity”.

These data come from paper PMC11697048, “Ce6-GFFY is a novel photosensitizer for colorectal cancer therapy” (Genes & Diseases, 2024).
